Measurements as given in patent US20220042018, “APTAMERS AND THE USE THEREOF IN THE TREATMENT OF CANCER” (FUNDACIÓn PARA LA INVESTIGACIÓn BIOMÉDICA …, published 2022).

Columns and labels:
MNK1b (MKNK1 isoform b) [1] = target: T1, MNK1b (MKNK1 isoform b) (UniProt Q9BUB5-3 Q9BUB5-3:1-347); test: ELONA; BSA-free aptamer buffer, 37 C; four-fold higher affinity than MNK1a; preferentially recognised in native apta-western; details: tags: GST fusion; label: biotin; G4 (parallel, five-tiered from 3- and 2-tier quadruplexes)
Protocol: (§1) To determine the binding of the aptamers to MNK1a or MNK1b, 200 ng of protein/well diluted in a coating solution (KPL, USA) in a final volume of 100 μL/well were added to a Maxisorp Nunc 96-well ELISA plate (ThermoFisher Scientific, USA). The plate was incubated overnight at 4° C. under stirring. Aptamers were then added at the corresponding concentration according to the assay, in a final volume of 100 μL/well of BSA-free aptamer buffer for 1 hour at 37° C. under stirring. All the aptamers used were labeled with biotin and had been previously denatured at 90° C. for 10 minutes and then kept at 4° C. for 10 minutes in the BSA-free aptamer buffer. To detect the binding of the aptamer to the protein, 100 μL/well of streptavidin-peroxidase (GE Healthcare, United Kingdom) diluted 1/1000 in the aptamer buffer at 37° C. for 1 hour under stirring were added. To develop the plate, 100 μL/well of ABTS solution (Roche, Switzerland) were added, and it was incubated in darkness at room temperature, with measurements being taken every 10 minutes at a wavelength of 405 nm in an Infinite F200 spectrophotometer (TECAN, Switzerland).
(§2) To analyze the affinity of the new aptamer apMNKQ2, ELONA assays were carried out with the four MNK1 constructs.

MNK1a (MKNK1 isoform a) [2] = target: T2, MNK1a (MKNK1 isoform a) (UniProt Q9BUB5-2 Q9BUB5-2:1-424); test: ELONA; BSA-free aptamer buffer, 37 C; also detected in apta-western; details: tags: GST fusion; label: biotin; G4 (parallel, five-tiered from 3- and 2-tier quadruplexes)
Protocol: as §1, §2

MNK1a (MKNK1 isoform a) [3] = target: T2, MNK1a (MKNK1 isoform a); test: recognised both isoforms in a similar manner; data not shown; details: tags: GST fusion; label: biotin; G4 predicted
MNK1b (MKNK1 isoform b) [4] = target: T1, MNK1b (MKNK1 isoform b); test: as above; details: tags: GST fusion; label: biotin; G4 predicted

T2 sequence (Q9BUB5 other isoform, or with tags, fused parts or gaps): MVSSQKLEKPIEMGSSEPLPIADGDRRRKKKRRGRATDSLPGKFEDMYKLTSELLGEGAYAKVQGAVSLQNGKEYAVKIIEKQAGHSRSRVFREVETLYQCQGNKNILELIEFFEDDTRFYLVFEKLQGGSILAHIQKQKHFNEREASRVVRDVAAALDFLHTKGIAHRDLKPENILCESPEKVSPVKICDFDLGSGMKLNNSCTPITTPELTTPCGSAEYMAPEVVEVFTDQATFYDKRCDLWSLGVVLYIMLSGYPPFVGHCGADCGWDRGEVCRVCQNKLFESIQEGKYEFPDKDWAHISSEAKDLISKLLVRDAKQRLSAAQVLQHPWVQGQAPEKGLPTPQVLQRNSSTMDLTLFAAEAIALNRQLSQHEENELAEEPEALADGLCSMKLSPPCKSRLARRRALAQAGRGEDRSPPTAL
T1 sequence (Q9BUB5 other isoform, or with tags, fused parts or gaps): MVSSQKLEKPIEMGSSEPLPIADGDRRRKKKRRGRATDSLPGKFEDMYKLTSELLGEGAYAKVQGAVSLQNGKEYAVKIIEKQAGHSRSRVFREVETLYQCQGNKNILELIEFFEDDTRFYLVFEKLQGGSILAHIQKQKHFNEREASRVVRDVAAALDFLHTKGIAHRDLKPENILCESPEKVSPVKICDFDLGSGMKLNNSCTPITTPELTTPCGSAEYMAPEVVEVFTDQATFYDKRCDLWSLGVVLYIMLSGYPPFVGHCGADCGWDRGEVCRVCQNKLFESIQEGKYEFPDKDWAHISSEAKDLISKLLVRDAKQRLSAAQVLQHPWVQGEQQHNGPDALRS

Row | Binder | Kd (MNK1b (MKNK1 isoform b) [1]) [µM] | Kd (MNK1a (MKNK1 isoform a) [2]) [µM] | binding result (MNK1a (MKNK1 isoform a) [3]) | binding result (MNK1b (MKNK1 isoform b) [4])
1 | TGGGGTGGGCGGGCGGGGGTGGGGGTGGT (structured_DNA) [apMNKQ2] | 0.0155 | 0.0661 | – | –
2 | TTTTTGGGGTGGGCGGGCGGGGGTGGGGGTGGTATGGCGCGTTGGCCC (structured_DNA) [apMNK2FT] | – | – | binds | binds
